Experimental data as given in patent publication US12195761B2, “Bioprinted, 3D scaffolds for cellular test beds and methods of use thereof” (University of Florida Research Foundation, Inc., priority 2020, dated 2025).

Columns and labels:
[1] = tested on: rat fibroblast; assay: Supplemental rat fibroblast viability study after printing in the bioink; format: cell-based; conditions: rat fibroblasts; compared to I2959 counterparts
Text: It is anticipated that crosslinking time can be reduced for the LAP group in the future to further increase viability.^40 Therefore, LAP became the crosslinker used for the later experiments for the advantages of LAP over I2959, as previously reported.^31,41

[2] = tested on: Schwann cells (SCs); assay: SC migration in 3D bioprinted hydrogels; format: cell-based, Rat; conditions: 1 μg/mL growth factor in bioprinted MAHA 10/Col-I hydrogel; 7 days; n=5
Procedure: SC Migration in 3D Bioprinted Hydrogels. The experimental groups included 1 μg/mL of NGF or GDNF encapsulated within 1 mL of bioink, whereas the control group contained no growth factor (no GF) (n=5). The bioinks were used to print a cylinder of 8 mm diameter and 2 mm height. The control group was printed without any growth factor. Next, SCs were seeded on top of the hydrogels at a cell density of 10^5 cells/cm^2 and cultured for 7 days with the media changed every 2 days. Hydrogel samples, stained using a Live/Dead assay, were then placed cell-side-down in a 35-mm diameter glass-bottom dish and imaged using a Zeiss LSM 880 laser-scanning confocal microscope. Z-stacked image of 500 μm deep at 10× magnification were analyzed to assess SC migration into the hydrogel using a Zeiss ZEN 2 software by creating a heat map based on relative depth within the hydrogel to measure the farthest migration points (n=5) in each sample. By taking the average of cell migration depth, this assessment examined the total migration into the biomaterials in 3D culture.

[3] = tested on: DRG neurites; assay: DRG neurite outgrowth in competitive in vitro test beds, β-III tubulin neurite length; format: cell-based; conditions: 7 days, n=5; for ratio of neurite length, growth factor side to control side: growth factor/control test bed, 1 μg/mL
Procedure: (§1) DRG Neurite Outgrowth in Competitive in vitro Test Beds. A 6-layer rectangular model with two arms or “chambers” were printed on each end (12 mm long, 5 mm wide, and 1.7 mm height). A base layer (0.7 mm height) was printed containing only the hydrogel. On top of the base on either side two “chambers” were printed; each chamber contained a concentration of 1 μg/mL of either NGF, GDNF, or no GF as control. To establish a competitive cue assay, three test bed groups were printed: NGF versus control (NGF/control), GDNF/control, or NGF/GDNF. DRGs were trimmed on the same day as testbed fabrication. Each DRG was semi-encapsulated at the center of the hydrogel testbeds by first placing the DRG directly in the middle of the two-chambered testbed and then securing in place with pH-neutralized Col-d solution at a concentration of 3 mg/mL. Col-d allowed for securing the DRG quickly without the need for direct UV exposure of the DRG. The test beds were incubated for 30 minutes to allow for collagen gelation and then media was added. Media was changed three hours following the addition of DRGs to account for bulk growth factor release into the media. DRGs were cultured for 7 days with media being changed every 2 days.
Following 7 days of culture, DRGs were fixed in 2% paraformaldehyde for 1 hour followed by three PBS rinses of 45 minutes each before blocking in 0.3% Triton X-100 and 3% goat serum in 1×PBS for 1 hour. The primary antibodies used were β-III tubulin to identify microtubules (i.e., indicating neurite extension) and GAP43, a “plasticity” protein that is expressed at high levels in neuronal growth cones (a secondary indicator of new neurite formation). Both antibodies were diluted at 1:500 dilutions and incubated on samples at 4° C. for 48 hours. […] ImageJ and the neurite tracer plugin were used to quantify neurite lengths extending from the DRG body. […] Positive area was measured as directional outgrowth from each DRG in the left and right directions toward the growth factor chambers relative to the center of the DRG body. […]

[4] = tested on: DRG neural growth cone (GAP43); assay: DRG neurite outgrowth in competitive in vitro test beds, GAP43 signal; format: cell-based; conditions: normalized to total positive area, 7 days, n=3
Procedure: as §1
Following 7 days of culture, DRGs were fixed in 2% paraformaldehyde for 1 hour followed by three PBS rinses of 45 minutes each before blocking in 0.3% Triton X-100 and 3% goat serum in 1×PBS for 1 hour. The primary antibodies used were β-III tubulin to identify microtubules (i.e., indicating neurite extension) and GAP43, a “plasticity” protein that is expressed at high levels in neuronal growth cones (a secondary indicator of new neurite formation). Both antibodies were diluted at 1:500 dilutions and incubated on samples at 4° C. for 48 hours. DRGs were then washed with 0.05% Tween-20 in 1×PBS three times for 6 hours each. Secondary antibodies, AlexaFluor 488 α-rabbit and AlexaFluor 568 α-mouse at 1:500 dilutions, were added for 16 hours in blocking buffer. DRGs were rinsed with 0.05% Tween-20 in 1×PBS three times for 6 hours each. Cell nuclei were stained with DAPI in deionized water for 5 minutes at room temperature. For β-III tubulin marker, top-view images of DRGs were acquired with a Zeiss Axio Imager 2 microscope. ImageJ and the neurite tracer plugin were used to quantify neurite lengths extending from the DRG body. From a ranked list of directional neurite lengths, the five longest neurite extensions were averaged for each chamber side. […] For the GAP43 marker, samples were imaged from the top with a Zeiss LMA 880 confocal microscope. ImageJ was used to threshold positive signal for all images. Positive area was measured as directional outgrowth from each DRG in the left and right directions toward the growth factor chambers relative to the center of the DRG body. […]

Row | Molecule | viability of bioprinted cells by photoinitiator [1] | SCs migrated distance into hydrogels [2] [μm] | ratio of neurite length, NGF to GDNF ([3]; NGF/GDNF test bed, 1 μg/mL each) | ratio of neurite length, growth factor side to control side [3] | fraction positive GAP43 signal ([4]; NGF/GDNF test bed) | fraction positive GAP43 signal ([4]; growth factor/control test bed)
1 | Cc1cc(C)c(C(=O)P(=O)([O-])c2ccccc2)c(C)c1.[Li+] [LAP, lithium phenyl-2,4,6-trimethylbenzoyl-phosphinate] | highest viability | – | – | – | – | –
2 | Rat beta-nerve growth factor (protein, UniProt P25427 122-241, looked up, Rat beta-nerve growth factor (R&D Systems 556-NG-100)) Beta-nerve growth factor: SSTHPVFHMGEFSVCDSVSVWVGDKTTATDIKGKEVTVLGEVNINNSVFKQYFFETKCRAPNPVESGCRGIDSKHWNSYCTTTHTFVKALTTDDKQAAWRFIRIDTACVCVLSRKAARRG | – | 301±89.4 | 1.09±0.19 | 1.42±0.13 | 0.58 | 0.63
3 | glial cell line-derived neurotrophic factor (protein, UniProt P39905 78-211, looked up, glial cell line-derived neurotrophic factor (R&D Systems 512-GF-010/CF)) Glial cell line-derived …: SPDKQMAVLPRRERNRQAAAANPENSRGKGRRGQRGKNRGCVLTAIHLNVTDLGLGYETKEELIFRYCSGSCDAAETTYDKILKNLSRNRRLVSDKVGQACCRPIAFDDDLSFLDDNLVYHILRKHSAKRCGCI | – | 403±79.6 | – | 1.41±0.06 | 0.42 | 0.66
